Test results published in publication PMC9482650, “Quantitative fragmentomics allow affinity mapping of interactomes” (Nature Communications, 2022).

T1: MPP6, Q9NZW5
T1 sequence (Q9NZW5 125-219, limits assumed, looked up): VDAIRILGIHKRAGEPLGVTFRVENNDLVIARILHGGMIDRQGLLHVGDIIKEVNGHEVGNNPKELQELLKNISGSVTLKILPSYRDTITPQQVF

T2: RADIL, Q96JH8
T2 sequence (Q96JH8 971-1071, limits assumed, looked up): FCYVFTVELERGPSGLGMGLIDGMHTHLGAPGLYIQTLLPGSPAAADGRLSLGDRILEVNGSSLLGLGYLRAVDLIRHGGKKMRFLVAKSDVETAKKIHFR

T3: DLG3_1, Q92796
T3 sequence (Q92796 125-227, limits assumed, looked up): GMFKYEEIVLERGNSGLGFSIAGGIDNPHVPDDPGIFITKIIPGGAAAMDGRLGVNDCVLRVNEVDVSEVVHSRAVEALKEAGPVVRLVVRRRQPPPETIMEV

T4: DLG3_2, Q92796
T4 sequence (Q92796 221-321, limits assumed, looked up): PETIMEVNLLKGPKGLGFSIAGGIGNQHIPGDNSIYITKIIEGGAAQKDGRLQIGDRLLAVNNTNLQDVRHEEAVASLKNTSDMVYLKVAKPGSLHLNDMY

T5: ARHGEF11, O15085
T5 sequence (O15085 42-136, limits assumed, looked up): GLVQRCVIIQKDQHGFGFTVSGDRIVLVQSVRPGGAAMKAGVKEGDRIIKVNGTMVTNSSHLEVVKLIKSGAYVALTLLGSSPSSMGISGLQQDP

T6: LIN7A, O14910
T6 sequence (O14910 103-200, limits assumed, looked up): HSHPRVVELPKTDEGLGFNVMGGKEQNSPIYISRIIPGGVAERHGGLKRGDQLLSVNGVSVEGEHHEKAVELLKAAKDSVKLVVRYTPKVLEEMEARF

T7: GRIP1_5, Q9Y3R0
T7 sequence (Q9Y3R0 568-668, limits assumed, looked up): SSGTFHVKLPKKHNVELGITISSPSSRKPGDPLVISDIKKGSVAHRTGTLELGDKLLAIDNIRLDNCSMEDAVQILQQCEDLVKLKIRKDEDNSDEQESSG

T8: SHANK1, Q9Y566
T8 sequence (Q9Y566 658-767, limits assumed, looked up): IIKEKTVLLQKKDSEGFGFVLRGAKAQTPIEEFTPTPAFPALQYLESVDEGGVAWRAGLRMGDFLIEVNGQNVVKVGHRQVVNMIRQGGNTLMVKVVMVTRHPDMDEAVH

T9: SIPA1L2, Q9P2F8
T9 sequence (Q9P2F8 945-1036, limits assumed, looked up): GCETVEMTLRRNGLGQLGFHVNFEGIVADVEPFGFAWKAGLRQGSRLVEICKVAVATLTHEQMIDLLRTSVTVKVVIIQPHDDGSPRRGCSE


The binders below were run against DLG4_2, P78352 (assay: holdup assay). Conditions: plain residues with an end cap or a label only (N-terminal biotin on a linker: ado-ado).
DLG4_2, P78352, sequence (P78352 155-259): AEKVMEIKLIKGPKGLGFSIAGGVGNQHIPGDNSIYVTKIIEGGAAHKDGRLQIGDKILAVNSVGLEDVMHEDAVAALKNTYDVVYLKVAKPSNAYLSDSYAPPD
Parameters: key: below the threshold = too weak to quantify, mostly under pKd 3.1 to 4
EVEEFPETSV [TRPV3, Q8NET8] gave a pKd of 4.4. Work on QGLAERISVL [PRKD2, Q9BZL6] yielded a pKd of 3.48.

The binders below were run against GRASP, Q7Z6J2 (assay: holdup assay). Conditions: plain residues with an end cap or a label only (N-terminal biotin on a linker: ado-ado).
GRASP, Q7Z6J2, sequence (Q7Z6J2 96-193): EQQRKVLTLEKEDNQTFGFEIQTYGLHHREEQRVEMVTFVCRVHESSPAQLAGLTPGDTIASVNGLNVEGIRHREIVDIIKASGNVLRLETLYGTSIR
Parameters: key: below the threshold = too weak to quantify, mostly under pKd 3.1 to 4
EVEEFPETSV [TRPV3, Q8NET8] gave a pKd of 3.9. Binder QGLAERISVL [PRKD2, Q9BZL6] has a pKd of 4.73.

These binders were tested against T1, MPP6, Q9NZW5 (assay: holdup assay). Conditions: plain residues with an end cap or a label only (N-terminal biotin on a linker: ado-ado).
Parameters: key: below the threshold = too weak to quantify, mostly under pKd 3.1 to 4
In the case of EVEEFPETSV [TRPV3, Q8NET8], the pKd is reported as “below the threshold”. For QGLAERISVL [PRKD2, Q9BZL6], the pKd was “below the threshold”.

What follows are binders tested against SCRIB_2, Q14160 (assay: holdup assay). Conditions: plain residues with an end cap or a label only (N-terminal biotin on a linker: ado-ado).
SCRIB_2, Q14160, sequence (Q14160 857-960): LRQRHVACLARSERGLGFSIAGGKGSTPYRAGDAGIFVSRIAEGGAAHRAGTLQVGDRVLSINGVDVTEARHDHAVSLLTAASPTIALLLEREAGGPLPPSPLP
Parameters: key: below the threshold = too weak to quantify, mostly under pKd 3.1 to 4
With EVEEFPETSV [TRPV3, Q8NET8] the pKd was 4.94. With QGLAERISVL [PRKD2, Q9BZL6] the pKd was “below the threshold”.

Each binder was assayed against IL16_1, Q14005 (assay: holdup assay). Conditions: plain residues with an end cap or a label only (N-terminal biotin on a linker: ado-ado).
IL16_1, Q14005, sequence (Q14005 210-306): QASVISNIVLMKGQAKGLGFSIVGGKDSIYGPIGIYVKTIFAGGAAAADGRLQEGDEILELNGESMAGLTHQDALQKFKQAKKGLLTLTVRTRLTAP
Parameters: key: below the threshold = too weak to quantify, mostly under pKd 3.1 to 4
Binder EVEEFPETSV [TRPV3, Q8NET8] has a pKd of 4.17. For QGLAERISVL [PRKD2, Q9BZL6], the pKd was 4.16.

The binders below were run against T2, RADIL, Q96JH8 (assay: holdup assay). Conditions: plain residues with an end cap or a label only (N-terminal biotin on a linker: ado-ado).
Parameters: key: below the threshold = too weak to quantify, mostly under pKd 3.1 to 4
Binder EVEEFPETSV [TRPV3, Q8NET8] has a pKd of 3.81. QGLAERISVL [PRKD2, Q9BZL6] gave a pKd of 3.99.

The binders below were run against T3, DLG3_1, Q92796 (assay: holdup assay). Conditions: plain residues with an end cap or a label only (N-terminal biotin on a linker: ado-ado).
Parameters: key: below the threshold = too weak to quantify, mostly under pKd 3.1 to 4
EVEEFPETSV [TRPV3, Q8NET8] showed a pKd of 3.87. QGLAERISVL [PRKD2, Q9BZL6] was tested, and the pKd was “below the threshold”.

The binders below were run against T4, DLG3_2, Q92796 (assay: holdup assay). Conditions: plain residues with an end cap or a label only (N-terminal biotin on a linker: ado-ado).
Parameters: key: below the threshold = too weak to quantify, mostly under pKd 3.1 to 4
EVEEFPETSV [TRPV3, Q8NET8] gave a pKd of 4.22. In the case of QGLAERISVL [PRKD2, Q9BZL6], the pKd is reported as “below the threshold”.

Each binder was assayed against SCRIB_3, Q14160 (assay: holdup assay). Conditions: plain residues with an end cap or a label only (N-terminal biotin on a linker: ado-ado).
SCRIB_3, Q14160, sequence (Q14160 999-1103): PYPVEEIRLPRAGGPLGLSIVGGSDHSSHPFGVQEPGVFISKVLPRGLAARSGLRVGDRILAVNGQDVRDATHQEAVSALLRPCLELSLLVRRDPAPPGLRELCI
Parameters: key: below the threshold = too weak to quantify, mostly under pKd 3.1 to 4
Binder EVEEFPETSV [TRPV3, Q8NET8] has a pKd of 5.02. Binder QGLAERISVL [PRKD2, Q9BZL6] has a pKd of 4.19.

What follows are binders tested against GOPC, Q9HD26 (assay: holdup assay). Conditions: plain residues with an end cap or a label only (N-terminal biotin on a linker: ado-ado).
Parameters: key: below the threshold = too weak to quantify, mostly under pKd 3.1 to 4
EVEEFPETSV [TRPV3, Q8NET8] gave a pKd of 4.22. In the case of QGLAERISVL [PRKD2, Q9BZL6], the pKd is reported as 3.98.

These binders were tested against MAGI2_2, Q86UL8 (assay: holdup assay). Conditions: plain residues with an end cap or a label only (N-terminal biotin on a linker: ado-ado).
MAGI2_2, Q86UL8, sequence (Q86UL8 410-522): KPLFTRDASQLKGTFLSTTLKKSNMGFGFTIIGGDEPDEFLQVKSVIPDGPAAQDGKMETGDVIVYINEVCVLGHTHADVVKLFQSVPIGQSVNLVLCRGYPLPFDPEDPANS
Parameters: key: below the threshold = too weak to quantify, mostly under pKd 3.1 to 4
With EVEEFPETSV [TRPV3, Q8NET8] the pKd was 3.76. QGLAERISVL [PRKD2, Q9BZL6] was tested, and the pKd was “below the threshold”.

Each binder was assayed against DLG1_1, Q12959 (assay: holdup assay). Conditions: plain residues with an end cap or a label only (N-terminal biotin on a linker: ado-ado).
Parameters: key: below the threshold = too weak to quantify, mostly under pKd 3.1 to 4
EVEEFPETSV [TRPV3, Q8NET8] showed a pKd of 4.25. QGLAERISVL [PRKD2, Q9BZL6] was tested, and the pKd was “below the threshold”.

What follows are binders tested against LDB3, O75112 (assay: holdup assay). Conditions: plain residues with an end cap or a label only (N-terminal biotin on a linker: ado-ado).
LDB3, O75112, sequence (O75112 1-94): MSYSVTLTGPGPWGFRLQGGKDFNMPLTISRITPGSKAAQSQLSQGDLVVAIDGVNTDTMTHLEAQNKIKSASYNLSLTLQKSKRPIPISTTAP
Parameters: key: below the threshold = too weak to quantify, mostly under pKd 3.1 to 4
For EVEEFPETSV [TRPV3, Q8NET8], the pKd was “below the threshold”. QGLAERISVL [PRKD2, Q9BZL6] was tested, and the pKd was “below the threshold”.

These binders were tested against T5, ARHGEF11, O15085 (assay: holdup assay). Conditions: plain residues with an end cap or a label only (N-terminal biotin on a linker: ado-ado).
Parameters: key: below the threshold = too weak to quantify, mostly under pKd 3.1 to 4
EVEEFPETSV [TRPV3, Q8NET8] showed a pKd of 4.79. QGLAERISVL [PRKD2, Q9BZL6] was tested, and the pKd was 4.77.

Each binder was assayed against FRMPD3, Q5JV73 (assay: holdup assay). Conditions: plain residues with an end cap or a label only (N-terminal biotin on a linker: ado-ado).
FRMPD3, Q5JV73, sequence (Q5JV73 12-100): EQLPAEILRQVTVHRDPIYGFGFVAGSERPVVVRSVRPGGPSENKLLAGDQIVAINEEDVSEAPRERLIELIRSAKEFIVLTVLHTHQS
Parameters: key: below the threshold = too weak to quantify, mostly under pKd 3.1 to 4
EVEEFPETSV [TRPV3, Q8NET8] gave a pKd of 3.59. For QGLAERISVL [PRKD2, Q9BZL6], the pKd was “below the threshold”.

What follows are binders tested against DLG4_3, P78352 (assay: holdup assay). Conditions: plain residues with an end cap or a label only (N-terminal biotin on a linker: ado-ado).
DLG4_3, P78352, sequence (P78352 306-403): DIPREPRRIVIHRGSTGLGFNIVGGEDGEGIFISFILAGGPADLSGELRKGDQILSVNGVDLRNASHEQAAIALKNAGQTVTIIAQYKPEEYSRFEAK
Parameters: key: below the threshold = too weak to quantify, mostly under pKd 3.1 to 4
EVEEFPETSV [TRPV3, Q8NET8] showed a pKd of 4.2. With QGLAERISVL [PRKD2, Q9BZL6] the pKd was “below the threshold”.

These binders were tested against MAGI3_2, Q5TCQ9 (assay: holdup assay). Conditions: plain residues with an end cap or a label only (N-terminal biotin on a linker: ado-ado).
MAGI3_2, Q5TCQ9, sequence (Q5TCQ9 398-503): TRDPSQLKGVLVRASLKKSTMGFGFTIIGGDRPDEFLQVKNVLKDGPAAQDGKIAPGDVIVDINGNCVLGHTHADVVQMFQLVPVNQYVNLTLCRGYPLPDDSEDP
Parameters: key: below the threshold = too weak to quantify, mostly under pKd 3.1 to 4
In the case of EVEEFPETSV [TRPV3, Q8NET8], the pKd is reported as 4.27. With QGLAERISVL [PRKD2, Q9BZL6] the pKd was “below the threshold”.

These binders were tested against DLG1_3, Q12959 (assay: holdup assay). Conditions: plain residues with an end cap or a label only (N-terminal biotin on a linker: ado-ado).
Parameters: key: below the threshold = too weak to quantify, mostly under pKd 3.1 to 4
EVEEFPETSV [TRPV3, Q8NET8] was tested, and the pKd was 4.64. With QGLAERISVL [PRKD2, Q9BZL6] the pKd was “below the threshold”.

These binders were tested against TJP1_2, Q07157 (assay: holdup assay). Conditions: plain residues with an end cap or a label only (N-terminal biotin on a linker: ado-ado).
TJP1_2, Q07157, sequence (Q07157 181-274): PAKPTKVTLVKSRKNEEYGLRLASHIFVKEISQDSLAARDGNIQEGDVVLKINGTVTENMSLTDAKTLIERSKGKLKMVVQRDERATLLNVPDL
Parameters: key: below the threshold = too weak to quantify, mostly under pKd 3.1 to 4
In the case of EVEEFPETSV [TRPV3, Q8NET8], the pKd is reported as 3.52. QGLAERISVL [PRKD2, Q9BZL6] was tested, and the pKd was “below the threshold”.

The binders below were run against AHNAK1, Q09666 (assay: holdup assay). Conditions: plain residues with an end cap or a label only (N-terminal biotin on a linker: ado-ado).
AHNAK1, Q09666, sequence (Q09666 4-100): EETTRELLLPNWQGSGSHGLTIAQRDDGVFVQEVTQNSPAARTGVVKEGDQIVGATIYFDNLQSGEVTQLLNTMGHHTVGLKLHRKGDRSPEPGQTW
Parameters: key: below the threshold = too weak to quantify, mostly under pKd 3.1 to 4
With EVEEFPETSV [TRPV3, Q8NET8] the pKd was “below the threshold”. For QGLAERISVL [PRKD2, Q9BZL6], the pKd was “below the threshold”.

What follows are binders tested against GORASP2, Q9H8Y8 (assay: holdup assay). Conditions: plain residues with an end cap or a label only (N-terminal biotin on a linker: ado-ado).
Parameters: key: below the threshold = too weak to quantify, mostly under pKd 3.1 to 4
EVEEFPETSV [TRPV3, Q8NET8] showed a pKd of 3.51. Work on QGLAERISVL [PRKD2, Q9BZL6] yielded a pKd of 4.16.

The binders below were run against PDLIM1, O00151 (assay: holdup assay). Conditions: plain residues with an end cap or a label only (N-terminal biotin on a linker: ado-ado).
PDLIM1, O00151, sequence (O00151 1-87): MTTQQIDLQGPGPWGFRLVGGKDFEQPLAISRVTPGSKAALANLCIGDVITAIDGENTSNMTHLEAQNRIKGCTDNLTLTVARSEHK
Parameters: key: below the threshold = too weak to quantify, mostly under pKd 3.1 to 4
EVEEFPETSV [TRPV3, Q8NET8] gave a pKd of 3.6. QGLAERISVL [PRKD2, Q9BZL6] was tested, and the pKd was “below the threshold”.

What follows are binders tested against T6, LIN7A, O14910 (assay: holdup assay). Conditions: plain residues with an end cap or a label only (N-terminal biotin on a linker: ado-ado).
Parameters: key: below the threshold = too weak to quantify, mostly under pKd 3.1 to 4
In the case of EVEEFPETSV [TRPV3, Q8NET8], the pKd is reported as 4.15. For QGLAERISVL [PRKD2, Q9BZL6], the pKd was “below the threshold”.

These binders were tested against T7, GRIP1_5, Q9Y3R0 (assay: holdup assay). Conditions: plain residues with an end cap or a label only (N-terminal biotin on a linker: ado-ado).
Parameters: key: below the threshold = too weak to quantify, mostly under pKd 3.1 to 4
EVEEFPETSV [TRPV3, Q8NET8] was tested, and the pKd was “below the threshold”. In the case of QGLAERISVL [PRKD2, Q9BZL6], the pKd is reported as “below the threshold”.

The binders below were run against T8, SHANK1, Q9Y566 (assay: holdup assay). Conditions: plain residues with an end cap or a label only (N-terminal biotin on a linker: ado-ado).
Parameters: key: below the threshold = too weak to quantify, mostly under pKd 3.1 to 4
In the case of EVEEFPETSV [TRPV3, Q8NET8], the pKd is reported as 3.94. QGLAERISVL [PRKD2, Q9BZL6] showed a pKd of 4.23.

Each binder was assayed against MAGI1_2, Q96QZ7 (assay: holdup assay). Conditions: plain residues with an end cap or a label only (N-terminal biotin on a linker: ado-ado).
MAGI1_2, Q96QZ7, sequence (Q96QZ7 456-580): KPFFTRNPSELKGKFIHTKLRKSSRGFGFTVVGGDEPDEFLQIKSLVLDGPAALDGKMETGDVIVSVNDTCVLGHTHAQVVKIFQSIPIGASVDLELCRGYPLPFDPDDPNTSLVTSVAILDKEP
Parameters: key: below the threshold = too weak to quantify, mostly under pKd 3.1 to 4
In the case of EVEEFPETSV [TRPV3, Q8NET8], the pKd is reported as 3.63. QGLAERISVL [PRKD2, Q9BZL6] was tested, and the pKd was “below the threshold”.

What follows are binders tested against T9, SIPA1L2, Q9P2F8 (assay: holdup assay). Conditions: plain residues with an end cap or a label only (N-terminal biotin on a linker: ado-ado).
Parameters: key: below the threshold = too weak to quantify, mostly under pKd 3.1 to 4
With EVEEFPETSV [TRPV3, Q8NET8] the pKd was 3.55. QGLAERISVL [PRKD2, Q9BZL6] was tested, and the pKd was “below the threshold”.

Each binder was assayed against TJP2_1, Q9UDY2 (assay: holdup assay). Conditions: plain residues with an end cap or a label only (N-terminal biotin on a linker: ado-ado).
TJP2_1, Q9UDY2, sequence (Q9UDY2 24-128): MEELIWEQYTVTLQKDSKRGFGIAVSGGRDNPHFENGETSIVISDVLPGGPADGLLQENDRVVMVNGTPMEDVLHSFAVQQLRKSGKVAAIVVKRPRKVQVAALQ
Parameters: key: below the threshold = too weak to quantify, mostly under pKd 3.1 to 4
In the case of EVEEFPETSV [TRPV3, Q8NET8], the pKd is reported as “below the threshold”. QGLAERISVL [PRKD2, Q9BZL6] was tested, and the pKd was “below the threshold”.
